Numbering of substitutions follows the chain as printed. Names and notes keep the numbering of the source.
B1: granzyme B variant K44F, L46E, K155P, K172L, S175I, K200R (protein)
chain: IIGGHEAKPHSRPYMAYLMIWDQFSEKRCGGFLIRDDFVLTAAHCWGSSINVTLGAHNIKEQEPTQQFIPVKRPIPHPAYNPKNFSNDIMLLQLERKAKRTRAVQPLRLPSNKAQVKPGQTCSVAGWGQTAPLGPHSHTLQEVKMTVQEDRLCEIDLRHYYDSTIELCVGDPEIKKTSFRGDSGGPLVCNKVAQGIVSYGRNNGMPPRACTKVSSFVHWIKKTMKRY
B2: granzyme B variant K44L, L46I, K155P, K172L, S175I, K200R (protein)
chain: B1 chain with F24L, E26I
B3: granzyme B variant K44F, R48K, K155P, K172L, S175I, K200R (protein)
chain: B1 chain with E26L, R28K
B4: granzyme B variant K44L, R48K, K155P, K172L, S175I, K200R (protein)
chain: B1 chain with F24L, E26L, R28K
B5: granzyme B variant K44F, L46I, K155P, K172L, S175I, K200R (protein)
chain: B1 chain with E26I
B6: granzyme B variant K44L, L46E, K155P, K172L, S175I, K200R (protein)
chain: B1 chain with F24L
B7: granzyme B variant K44F, L46Q, K155P, K172L, S175I, K200R (protein)
chain: B1 chain with E26Q
B8: granzyme B variant K44L, L46Q, K155P, K172L, S175I, K200R (protein)
chain: B1 chain with F24L, E26Q
B9: granzyme B variant K44F, R48E, K155P, K172L, S175I, K200R (protein)
chain: B1 chain with E26L, R28E
B10: granzyme B variant K44L, R48E, K155P, K172L, S175I, K200R (protein)
chain: B1 chain with F24L, E26L, R28E
B11: granzyme B variant K44F, L46F, K155P, K172L, S175I, K200R (protein)
chain: B1 chain with E26F
B12: granzyme B variant K44L, L46F, K155P, K172L, S175I, K200R (protein)
chain: B1 chain with F24L, E26F

Molecular target: T1, Recombinant Human Serpin B9/SERPINB9 (C-6His) (Novoprotein, CJ32), P50453
T1 chain: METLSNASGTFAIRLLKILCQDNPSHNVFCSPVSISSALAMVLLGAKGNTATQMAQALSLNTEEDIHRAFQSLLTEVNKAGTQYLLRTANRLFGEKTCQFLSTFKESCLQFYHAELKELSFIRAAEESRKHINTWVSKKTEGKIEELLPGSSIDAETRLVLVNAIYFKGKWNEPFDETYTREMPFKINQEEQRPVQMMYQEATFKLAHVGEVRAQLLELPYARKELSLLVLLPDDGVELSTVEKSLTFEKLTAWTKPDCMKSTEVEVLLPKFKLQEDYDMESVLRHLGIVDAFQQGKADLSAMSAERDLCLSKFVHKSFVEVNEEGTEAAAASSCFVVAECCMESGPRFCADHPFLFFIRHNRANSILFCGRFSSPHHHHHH

Protein | protease activity (cleavage of Ac-IEPD-pNA, absorbance at 405 nm) after 1 h at 37 C with 0.5 uM PI-9, relative to wild-type granzyme B
B1 | the variants maintained high protease activity even in the presence of inhibitors
B2 | the variants maintained high protease activity even in the presence of inhibitors
B3 | the variants maintained high protease activity even in the presence of inhibitors
B4 | the variants maintained high protease activity even in the presence of inhibitors
B5 | the variants maintained high protease activity even in the presence of inhibitors
B6 | the variants maintained high protease activity even in the presence of inhibitors
B7 | the variants maintained high protease activity even in the presence of inhibitors
B8 | the variants maintained high protease activity even in the presence of inhibitors
B9 | the variants maintained high protease activity even in the presence of inhibitors
B10 | the variants maintained high protease activity even in the presence of inhibitors
B11 | the variants maintained high protease activity even in the presence of inhibitors
B12 | the variants maintained high protease activity even in the presence of inhibitors

— patent US20230203108
